The target of the assay is T1, TNFR1, P19438.
T1 chain: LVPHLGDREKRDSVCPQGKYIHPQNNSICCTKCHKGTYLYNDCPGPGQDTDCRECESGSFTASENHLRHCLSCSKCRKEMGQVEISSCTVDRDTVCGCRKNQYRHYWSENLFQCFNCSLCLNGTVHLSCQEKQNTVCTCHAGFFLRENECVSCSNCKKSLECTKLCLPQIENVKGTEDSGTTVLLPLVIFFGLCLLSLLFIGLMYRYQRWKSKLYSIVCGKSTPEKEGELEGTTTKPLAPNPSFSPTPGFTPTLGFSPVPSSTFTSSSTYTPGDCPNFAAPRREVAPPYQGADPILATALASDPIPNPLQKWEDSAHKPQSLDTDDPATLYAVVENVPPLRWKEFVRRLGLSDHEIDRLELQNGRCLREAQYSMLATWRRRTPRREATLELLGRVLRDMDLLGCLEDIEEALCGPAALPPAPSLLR
Description: quantitative single-molecule localization microscopy (dSTORM/PALM); TNFR1 in the plasma membrane at physiological cell surface expression levels, upon TNF binding. Particulars: remark: other sources report otherwise.

Where only a bound is given, the exact number is not on record here.

B1: TNFR1, P19438 30-455 (receptor)
chain: LVPHLGDREKRDSVCPQGKYIHPQNNSICCTKCHKGTYLYNDCPGPGQDTDCRECESGSFTASENHLRHCLSCSKCRKEMGQVEISSCTVDRDTVCGCRKNQYRHYWSENLFQCFNCSLCLNGTVHLSCQEKQNTVCTCHAGFFLRENECVSCSNCKKSLECTKLCLPQIENVKGTEDSGTTVLLPLVIFFGLCLLSLLFIGLMYRYQRWKSKLYSIVCGKSTPEKEGELEGTTTKPLAPNPSFSPTPGFTPTLGFSPVPSSTFTSSSTYTPGDCPNFAAPRREVAPPYQGADPILATALASDPIPNPLQKWEDSAHKPQSLDTDDPATLYAVVENVPPLRWKEFVRRLGLSDHEIDRLELQNGRCLREAQYSMLATWRRRTPRREATLELLGRVLRDMDLLGCLEDIEEALCGPAALPPAPSLLR
For the molecule B1, the stoichiometry N (as a rule, a count of units in the complex or per binding partner) is above 3.
